The values below come from patent US20210040174A1.

Assay [1] deals with his-tagged C-terminal fragment from CA125 (UniProt Q8WXI7). The assay can be described thus: SPR (BiaCore T200): fusion protein captured on Protein A chip, his-tagged C-terminal CA125 fragment as analyte; two MCB domains (MCB domain-2X, SEQ ID: 2). (In general: SPR reads the build-up and loss of mass on a sensor chip optically.)
For assay [2] the target is unchanged. The assay can be described thus: SPR (BiaCore T200): fusion protein captured on Protein A chip, his-tagged C-terminal CA125 fragment as analyte; one MCB domain (MCB domain-1X, SEQ ID: 4).

One may read the Kd as the constant that tells how readily two partners part at equilibrium. As to “MCB domain-2X fusion protein (two MCB domains of mesothelin linked via a single spacer unit to the N-terminus of the human IgG1 Fc heavy chain) (Fc fusion)”, the Kd in assay [1] is 14.9 pM.

Substance “MCB domain-1X fusion protein (single MCB domain of mesothelin linked to the N-terminus of the human IgG1 Fc heavy chain) (Fc fusion)” had an equilibrium dissociation constant (Kd) in assay [2] of 65.2 pM.
